Assay results reported in the supplement of paper PMC7125110.
± gives the standard error. Fewer inactive variants are shown than the library holds.

B1: glmS ribozyme (parent)
chain: AUAAAAGCGCCAGAACUACAGAAAUGUAGUUGACGAGGAGGAGGUUUAUCGAAUUUUCGGCGGAUGCCUCCAAA

Experiments:
Conditions in all cases: with glucosamine-6-phosphate
[1] = variants of: B1; experiment: self-cleavage kobs at 40 uM GlcN6P; higher = faster cleavage; RNA array
In short: (§1)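 Sequenced MiSeq chips were the platform: E. coli RNA polymerase transcribed barcoded ribozyme variants on them in situ, and a hybridised Cy3 probe tracked these at 37 °C. After glucosamine-6-phosphate (40 μM to 10 mM) in HEPES/KCl/Mg(OAc)2 buffer was flowed in, tiles were imaged over ~14 h. Signals normalised to baseline and to non-cleaving reference variants were reduced to per-tile medians and fit to one- or two-exponential decays to obtain kobs. kcat and KM were derived through weighted Michaelis–Menten fits across concentrations.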

[2] = variants of: B1; experiment: self-cleavage kobs at 10000 uM GlcN6P; higher = faster cleavage; RNA array
In short: as §1

[3] = variants of: B1; experiment: self-cleavage kobs at 160 uM GlcN6P; higher = faster cleavage; RNA array
In short: as §1

[4] = variants of: B1; experiment: self-cleavage kobs at 640 uM GlcN6P; higher = faster cleavage; RNA array
In short: as §1

[5] = variants of: B1; experiment: self-cleavage kobs at 2500 uM GlcN6P; higher = faster cleavage; RNA array
In short: as §1

| Variant | self-cleavage kobs at 40 uM GlcN6P [1] [s⁻¹] | self-cleavage kobs at 10000 uM GlcN6P [2] [s⁻¹] | self-cleavage kobs at 160 uM GlcN6P [3] [s⁻¹] | self-cleavage kobs at 640 uM GlcN6P [4] [s⁻¹] | self-cleavage kobs at 2500 uM GlcN6P [5] [s⁻¹] |
| --- | --- | --- | --- | --- | --- |
| C50U G51U | < 1e-05 | < 1e-05 | – | – | – |
| U46C G59C C68U | < 1e-05 | – | – | – | – |
| A48C A52G | < 1e-05 | – | < 1e-05 | < 1e-05 | – |
| A48G C61U G66C C70U | < 1e-05 | – | – | – | – |
| C50U C61U | < 1e-05 | < 1e-05 | – | < 1e-05 | < 1e-05 |
| U46G G51U | < 1e-05 | < 1e-05 | < 1e-05 | < 1e-05 | < 1e-05 |
| A48G C50G C61G | 0.000172 ± 6.6e-05 | 0.000127 ± 3.7e-05 | – | – | – |
| U49A G63C U69C | < 1e-05 | – | – | – | – |
| A48C U69G | < 1e-05 | < 1e-05 | < 1e-05 | – | – |
| U49A A52G | < 1e-05 | – | – | – | – |
| A48U G63U | < 1e-05 | < 1e-05 | < 1e-05 | < 1e-05 | < 1e-05 |
| U47G U56G G63U | < 1e-05 | – | – | – | – |
| A48C C61A | < 1e-05 | < 1e-05 | – | < 1e-05 | – |
| U46G C61G | < 1e-05 | < 1e-05 | < 1e-05 | < 1e-05 | – |
| A48U C67U C70U | < 1e-05 | – | – | – | < 1e-05 |
| U49C G66A | < 1e-05 | < 1e-05 | – | – | – |
| A48U A52G G63A | < 1e-05 | < 1e-05 | – | – | – |
| U46G U47G C67A | 7.27e-05 ± 2e-05 | 0.0021 ± 0.00039 | – | – | – |
| A48G G51U | < 1e-05 | – | < 1e-05 | – | – |
| U47G G60U | < 1e-05 | – | < 1e-05 | – | < 1e-05 |
| U46A G51A | < 1e-05 | < 1e-05 | < 1e-05 | – | < 1e-05 |
| U46G C67G C68G | 2.82e-05 ± 1.4e-05 | – | – | – | 7.29e-05 ± 2.5e-05 |
| U49C C50A | < 1e-05 | – | < 1e-05 | – | – |
| A48C C58U | < 1e-05 | < 1e-05 | < 1e-05 | < 1e-05 | – |
| U49C C58U | < 1e-05 | < 1e-05 | < 1e-05 | < 1e-05 | < 1e-05 |
